Read-outs that look alike come from different tables or passages of the source.
Experiments:
[1] = molecular target: T1, anti-HER2 antibody 4D5, IgG1 subtype; assay: SPR: 4D5 IgG1 captured on Protein L chip, RF61-MMP3 fusion constructs injected; monovalent affinity of the targeting arm
T1 construct: Captured on a Protein L chip as the IgG1 target of the RF61-MMP3 fusion constructs
Protocol: RF61 surface plasmon resonance: RF61 affinity for human IgG was assessed with a Biacore 8K+ or T200. For rounds one and two of affinity maturation, the Fc domain of human IgG1 was captured on a Series S Protein A chip according to the manufacturer's protocols. Serial dilutions of the RF61 Fab variants were prepared in HBS-P+ buffer. The dilutions were passed over the chip for 4 min, followed by a 5 min dissociation step. Variants were assessed using the response units at the point of late analyte binding normalized to Fc capture level. […] Serial dilutions of human IgG1 Fc in HBS-P+ were passed over the chip for 10 minutes, followed by a 6 min dissociation step. Affinity constants were obtained through kinetic fitting using the Biacore Evaluation Software (GE). […] A single 1000 nM concentration of each binding ablation variant was passed over the chip for 10 minutes, followed by a 6 min dissociation step. […] Serial dilutions of the RF61-MMP3 fusion constructs were prepared in HBS-P+ buffer. The dilutions were flowed over the chip for 3 min, followed by 8 min of dissociation. […] Affinity constants were determined as described above.

human IgG1 Fc = molecular target: T2, human IgG1 Fc (human, UniProt P01857-1 104-330 = IgG part, limits assumed); assay: SPR: chimeric antibody captured by anti-mouse antibody on CM5 chip, human IgG1 Fc injected
T2 construct: domain: Fc; also called Fc domain of human IgG1

Aβ(1-40) [2] = molecular target: T3, Aβ(1-40) (UniProt P05067 672-711); assay: cell-based or functional assay
Aβ(1-28) = molecular target: T4, Aβ(1-28) (UniProt P05067 672-699); assay: SPR (Biacore T200): fusion captured on a protein A chip, Aβ(1-28) injected as analyte
T4 construct: domain: Aβ(1-28); also called amyloid-β 1-28
Protocol: Aβ surface plasmon resonance: Solution affinity constants for anti-Aβ antibodies were assessed on a Biacore™ T200. […] Affinity constants were obtained through kinetic fitting using the Biacore Evaluation Software.

Aβ(1-40) [3] = molecular target: T3, Aβ(1-40); assay: cell-based or functional assay; remark: listed apart in the source
Aβ(1-42) [4] = molecular target: T5, Aβ(1-42) (UniProt P05067 672-713); assay: cell-based or functional assay
Aβ(1-40) [5] = molecular target: T3, Aβ(1-40); assay: cell-based or functional assay; remark: listed apart in the source
Aβ(1-42) [6] = molecular target: T5, Aβ(1-42); assay: cell-based or functional assay; remark: listed apart in the source

B1: Fab-NTF(LC)-1 format, MMP3-D4K-4, RF61-D (Fab)
heavy: QLQLQESGPGLVKPSETLSLTCTVSGGSISRGSHYWGWIRQPPGKGLEWIGSIYYSGNTYFNPSLKSRVTISVDTSKNQFSLKLSSVTAADTAVYYCARLGPDDYTLDGMDVWGQGTTVTVSSASTKGPSVFPLAPSSKSTSGGTAALGCLVKDYFPEPVTVSWNSGALTSGVHTFPAVLQSSGLYSLSSVVTVPSSSLGTQTYICNVNHKPSNTKVDKKVEPKSCDKTHTDYKDDDDK
light: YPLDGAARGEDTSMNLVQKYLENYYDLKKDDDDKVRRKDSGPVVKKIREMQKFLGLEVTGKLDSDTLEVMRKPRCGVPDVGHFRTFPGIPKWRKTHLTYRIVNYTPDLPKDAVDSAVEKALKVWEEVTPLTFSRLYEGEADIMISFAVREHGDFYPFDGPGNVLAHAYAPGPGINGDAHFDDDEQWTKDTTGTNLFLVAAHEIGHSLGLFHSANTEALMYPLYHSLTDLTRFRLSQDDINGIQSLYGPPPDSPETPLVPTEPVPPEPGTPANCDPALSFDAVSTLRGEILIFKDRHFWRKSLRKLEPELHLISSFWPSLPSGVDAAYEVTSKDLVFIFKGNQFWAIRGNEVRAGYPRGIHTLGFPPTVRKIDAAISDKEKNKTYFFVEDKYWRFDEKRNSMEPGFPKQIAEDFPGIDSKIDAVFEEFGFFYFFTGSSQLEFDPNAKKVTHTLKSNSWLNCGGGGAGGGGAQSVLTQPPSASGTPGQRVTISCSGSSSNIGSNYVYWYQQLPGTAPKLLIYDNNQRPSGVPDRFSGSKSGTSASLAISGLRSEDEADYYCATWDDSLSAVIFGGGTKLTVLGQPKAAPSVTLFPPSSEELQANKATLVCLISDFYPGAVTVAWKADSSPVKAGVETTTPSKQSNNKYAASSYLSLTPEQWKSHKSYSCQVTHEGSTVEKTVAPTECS
notes: MMP3-D4K-4 fused to the N-terminus of the light chain; also called RF61-D Fab fusion
Kd [1]: 104 nM

B2: RF61 chimeric antibody variant R50D LC, S62P L95N T100aA D100cE M100eF HC (mouse IgG2a constant domains) (antibody, V domains shown)
VH: QLQLQESGPGLVKPSETLSLTCTVSGGSISRGSHYWGWIRQPPGKGLEWIGSIYYSGNTYFNPPLKSRVTISVDTSKNQFSLKLSSVTAADTAVYYCARNGPDDYALEGFDVWGQGTTVTVSS
VL: QSVLTQPPSASGTPGQRVTISCSGSSSNIGSNYVYWYQQLPGTAPKLLIYDNNQRPSGVPDRFSGSKSGTSASLAISGLRSEDEADYYCATWDDSLSAVIFGGGTKLTVL
notes: Round 3 variant, one of the eight; copies: 2 + 2
binding result (human IgG1 Fc): binds

B3: RF61 chimeric antibody variant R50D Y34F LC, S62P L95N D100cE M100eF HC (mouse IgG2a constant domains) (antibody, V domains shown)
VH: QLQLQESGPGLVKPSETLSLTCTVSGGSISRGSHYWGWIRQPPGKGLEWIGSIYYSGNTYFNPPLKSRVTISVDTSKNQFSLKLSSVTAADTAVYYCARNGPDDYTLEGFDVWGQGTTVTVSS
VL: QSVLTQPPSASGTPGQRVTISCSGSSSNIGSNYVFWYQQLPGTAPKLLIYDNNQRPSGVPDRFSGSKSGTSASLAISGLRSEDEADYYCATWDDSLSAVIFGGGTKLTVL
notes: as for B2
binding result (human IgG1 Fc): binds

B4: RF61 chimeric antibody variant R50D Y34F LC, S62P D99H M100eF HC (mouse IgG2a constant domains) (antibody, V domains shown)
VH: QLQLQESGPGLVKPSETLSLTCTVSGGSISRGSHYWGWIRQPPGKGLEWIGSIYYSGNTYFNPPLKSRVTISVDTSKNQFSLKLSSVTAADTAVYYCARLGPDHYTLDGFDVWGQGTTVTVSS
VL: QSVLTQPPSASGTPGQRVTISCSGSSSNIGSNYVFWYQQLPGTAPKLLIYDNNQRPSGVPDRFSGSKSGTSASLAISGLRSEDEADYYCATWDDSLSAVIFGGGTKLTVL
notes: as for B2
binding result (human IgG1 Fc): binds

B5: RF61 chimeric antibody variant R50N LC, S62P L95N D99H T100aA D100cE M100eF HC (mouse IgG2a constant domains) (antibody, V domains shown)
VH: QLQLQESGPGLVKPSETLSLTCTVSGGSISRGSHYWGWIRQPPGKGLEWIGSIYYSGNTYFNPPLKSRVTISVDTSKNQFSLKLSSVTAADTAVYYCARNGPDHYALEGFDVWGQGTTVTVSS
VL: QSVLTQPPSASGTPGQRVTISCSGSSSNIGSNYVYWYQQLPGTAPKLLIYNNNQRPSGVPDRFSGSKSGTSASLAISGLRSEDEADYYCATWDDSLSAVIFGGGTKLTVL
notes: as for B2
binding result (human IgG1 Fc): binds

B6: RF61 chimeric antibody variant R50N LC, L95N D99H T100aA HC (mouse IgG2a constant domains) (antibody, V domains shown)
VH: QLQLQESGPGLVKPSETLSLTCTVSGGSISRGSHYWGWIRQPPGKGLEWIGSIYYSGNTYFNPSLKSRVTISVDTSKNQFSLKLSSVTAADTAVYYCARNGPDHYALDGMDVWGQGTTVTVSS
VL: QSVLTQPPSASGTPGQRVTISCSGSSSNIGSNYVYWYQQLPGTAPKLLIYNNNQRPSGVPDRFSGSKSGTSASLAISGLRSEDEADYYCATWDDSLSAVIFGGGTKLTVL
notes: as for B2
binding result (human IgG1 Fc): binds

B7: RF61 chimeric antibody variant R50N Y34F LC, S62P D99H D100cE M100eF HC (mouse IgG2a constant domains) (antibody, V domains shown)
VH: QLQLQESGPGLVKPSETLSLTCTVSGGSISRGSHYWGWIRQPPGKGLEWIGSIYYSGNTYFNPPLKSRVTISVDTSKNQFSLKLSSVTAADTAVYYCARLGPDHYTLEGFDVWGQGTTVTVSS
VL: QSVLTQPPSASGTPGQRVTISCSGSSSNIGSNYVFWYQQLPGTAPKLLIYNNNQRPSGVPDRFSGSKSGTSASLAISGLRSEDEADYYCATWDDSLSAVIFGGGTKLTVL
notes: as for B2
binding result (human IgG1 Fc): binds

B8: anti-gD Control (antibody, human IgG1, kappa)
heavy chain with neprolysin fused to its C-terminus: not shown
light chain: DIQMTQSPSSLSASVGDRVTITCRASASVDSYGNSFIHWYQQKPGKAPKLLIYRASDLESGVPSRFSGSGSGTDFTLTISSLQPEDFATYYCQQNYADPFTFGQGTKVEIKRTVAAPSVFIFPPSDEQLKSGTASVVCLLNNFYPREAKVQWKVDNALQSGNSQESVTEQDSKDSTYSLSSTLTLSKADYEKHKVYACEVTHQGLSSPVTKSFNRGEC
EC50 of Aβ(1-40) cleavage (intact Aβ by ELISA) (Aβ(1-40) [2]): 11 nM

B9: IgG-CTF-2 format, neprolysin, crenezumab G33S(HC) (antibody)
heavy: not shown
light: DIVMTQSPLSLPVTPGEPASISCRSSQSLVYSNGDTYLHWYLQKPGQSPQLLIYKVSNRFSGVPDRFSGSGSGTDFTLKISRVEAEDVGVYYCSQSTHVPWTFGQGTKVEIKRTVAAPSVFIFPPSDEQLKSGTASVVCLLNNFYPREAKVQWKVDNALQSGNSQESVTEQDSKDSTYSLSSTLTLSKADYEKHKVYACEVTHQGLSSPVTKSFNRGEC
notes: Variant of m9
Kd (Aβ(1-28)): 1.8 nM | koff (Aβ(1-28)): 0.0013 s⁻¹ | kon (Aβ(1-28)): 750000 M⁻¹ s⁻¹ | EC50 of Aβ(1-40) cleavage (intact Aβ by ELISA) (Aβ(1-40) [2]): 1.6 nM

B10: IgG-CTF-2 format, neprolysin, solanezumab (antibody)
heavy: not shown
light: DVVMTQSPLSLPVTLGQPASISCRSSQSLIYSDGNAYLHWFLQKPGQSPRLLIYKVSNRFSGVPDRFSGSGSGTDFTLKISRVEAEDVGVYYCSQSTHVPWTFGQGTKVEIKRTVAAPSVFIFPPSDEQLKSGTASVVCLLNNFYPREAKVQWKVDNALQSGNSQESVTEQDSKDSTYSLSSTLTLSKADYEKHKVYACEVTHQGLSSPVTKSFNRGEC
notes: Human IgG1 with NEP fused to the C-terminus of both heavy chains; also called solanezumab-NEP fusion
Kd (Aβ(1-28)): 0.5 nM | koff (Aβ(1-28)): 0.00014 s⁻¹ | kon (Aβ(1-28)): 300000 M⁻¹ s⁻¹ | EC50 of Aβ(1-40) cleavage (intact Aβ by ELISA) (Aβ(1-40) [2]): 3.9 nM

B11: IgG-CTF-2 format, neprolysin, crenezumab (antibody)
heavy: not shown
light: DIVMTQSPLSLPVTPGEPASISCRSSQSLVYSNGDTYLHWYLQKPGQSPQLLIYKVSNRFSGVPDRFSGSGSGTDFTLKISRVEAEDVGVYYCSQSTHVPWTFGQGTKVEIKRTVAAPSVFIFPPSDEQLKSGTASVVCLLNNFYPREAKVQWKVDNALQSGNSQESVTEQDSKDSTYSLSSTLTLSKADYEKHKVYACEVTHQGLSSPVTKSFNRGEC
notes: Human IgG1 with NEP fused to the C-terminus of both heavy chains; also called crenezumab-NEP fusion
Kd (Aβ(1-28)): 4.7 nM | koff (Aβ(1-28)): 0.0041 s⁻¹ | kon (Aβ(1-28)): 880000 M⁻¹ s⁻¹ | EC50 of Aβ(1-40) cleavage (intact Aβ by ELISA) (Aβ(1-40) [3]): 1.1 nM | EC50 of Aβ(1-42) cleavage (intact Aβ by ELISA) (Aβ(1-42) [4]): 5 nM | EC50 of Aβ(1-40) cleavage (intact Aβ by ELISA) (Aβ(1-40) [2]): 1.3 nM | EC50 of Aβ(1-40) cleavage, fold lower than the solanezumab-NEP fusion (Aβ(1-40) [5]): 3 fold | potency of Aβ cleavage, fold over the non-targeted control (Aβ(1-40) [5]): ~15 fold | potency of Aβ cleavage, fold over the non-targeted control (Aβ(1-42) [6]): ~9 fold

B12: IgG-CTF-2 format, neprolysin, crenezumab G33S(HC)/S56F(LC) (antibody)
heavy: not shown
light: DIVMTQSPLSLPVTPGEPASISCRSSQSLVYSNGDTYLHWYLQKPGQSPQLLIYKVSNRFFGVPDRFSGSGSGTDFTLKISRVEAEDVGVYYCSQSTHVPWTFGQGTKVEIKRTVAAPSVFIFPPSDEQLKSGTASVVCLLNNFYPREAKVQWKVDNALQSGNSQESVTEQDSKDSTYSLSSTLTLSKADYEKHKVYACEVTHQGLSSPVTKSFNRGEC
notes: Variant of m9
Kd (Aβ(1-28)): 0.8 nM | koff (Aβ(1-28)): 0.0006 s⁻¹ | kon (Aβ(1-28)): 750000 M⁻¹ s⁻¹ | EC50 of Aβ(1-40) cleavage (intact Aβ by ELISA) (Aβ(1-40) [2]): 2.3 nM
